Values belong to the binder of their own block, whether it stands above or below them.
Legend:
[1] = molecular target: T1, PARIS (parkin interacting substrate) (human, UniProt Q6NUN9 1-644, limits assumed); assay: immunoprecipitation of endogenous Iduna from MCF7 lysate, immunoblot
T1 construct: Negative control of the co-immunoprecipitation

[2] = molecular target: PARsylated PARP1 (recombinant PARP1 automodified in vitro), P09874
[3] = molecular target: recombinant PARP1, non-PARsylated, P09874
Sequence of recombinant PARP1, non-PARsylated, P09874 (P09874 whole entry, looked up): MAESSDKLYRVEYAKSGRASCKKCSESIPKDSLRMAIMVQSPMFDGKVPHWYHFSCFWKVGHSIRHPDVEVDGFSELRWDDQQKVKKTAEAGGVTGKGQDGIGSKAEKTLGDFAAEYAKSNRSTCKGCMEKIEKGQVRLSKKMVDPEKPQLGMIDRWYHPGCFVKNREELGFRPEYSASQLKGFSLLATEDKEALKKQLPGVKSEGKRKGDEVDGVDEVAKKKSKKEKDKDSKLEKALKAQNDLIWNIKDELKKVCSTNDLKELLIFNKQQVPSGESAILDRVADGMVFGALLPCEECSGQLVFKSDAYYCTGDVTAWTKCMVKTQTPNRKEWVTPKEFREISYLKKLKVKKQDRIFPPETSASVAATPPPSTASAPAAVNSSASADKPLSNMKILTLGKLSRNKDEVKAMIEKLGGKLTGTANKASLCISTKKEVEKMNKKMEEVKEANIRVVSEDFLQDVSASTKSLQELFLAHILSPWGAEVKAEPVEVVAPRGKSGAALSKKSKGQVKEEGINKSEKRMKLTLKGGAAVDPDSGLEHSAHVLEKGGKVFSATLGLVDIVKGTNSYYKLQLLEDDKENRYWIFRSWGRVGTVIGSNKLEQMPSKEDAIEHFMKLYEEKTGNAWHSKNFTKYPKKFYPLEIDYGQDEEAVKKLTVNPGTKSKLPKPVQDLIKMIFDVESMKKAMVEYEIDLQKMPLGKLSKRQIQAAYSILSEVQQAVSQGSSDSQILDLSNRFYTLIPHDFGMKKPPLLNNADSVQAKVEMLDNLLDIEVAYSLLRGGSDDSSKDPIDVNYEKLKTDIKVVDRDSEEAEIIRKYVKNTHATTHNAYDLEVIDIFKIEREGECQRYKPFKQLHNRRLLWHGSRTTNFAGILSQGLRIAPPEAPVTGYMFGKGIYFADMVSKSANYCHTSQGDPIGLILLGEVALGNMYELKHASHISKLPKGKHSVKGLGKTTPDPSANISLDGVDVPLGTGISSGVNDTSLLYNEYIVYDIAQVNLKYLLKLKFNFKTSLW

[4] = molecular target: PARsylated PARP1, endogenous protein of MCF7 cells, P09874
Sequence of PARsylated PARP1, endogenous protein of MCF7 cells, P09874 (P09874 whole entry, looked up): as above

T1 sequence (Q6NUN9 whole entry): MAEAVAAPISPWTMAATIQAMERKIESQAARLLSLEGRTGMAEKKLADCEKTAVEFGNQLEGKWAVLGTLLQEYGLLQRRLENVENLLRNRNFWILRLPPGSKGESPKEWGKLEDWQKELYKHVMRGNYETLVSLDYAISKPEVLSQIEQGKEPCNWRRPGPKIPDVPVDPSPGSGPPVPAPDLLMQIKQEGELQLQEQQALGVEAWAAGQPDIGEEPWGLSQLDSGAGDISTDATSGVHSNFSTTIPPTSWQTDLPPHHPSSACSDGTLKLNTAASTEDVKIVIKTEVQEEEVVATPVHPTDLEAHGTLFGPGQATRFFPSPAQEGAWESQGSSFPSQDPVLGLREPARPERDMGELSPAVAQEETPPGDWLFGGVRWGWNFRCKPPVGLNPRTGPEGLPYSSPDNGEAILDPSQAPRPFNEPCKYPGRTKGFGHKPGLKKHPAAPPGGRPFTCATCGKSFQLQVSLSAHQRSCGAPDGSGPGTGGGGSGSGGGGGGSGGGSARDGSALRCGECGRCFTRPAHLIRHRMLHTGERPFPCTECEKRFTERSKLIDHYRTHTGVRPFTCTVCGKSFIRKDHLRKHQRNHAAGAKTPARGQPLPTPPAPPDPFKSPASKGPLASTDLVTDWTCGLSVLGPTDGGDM
Sequence of PARsylated PARP1 (recombinant PARP1 automodified in vitro), P09874 (P09874 whole entry, looked up): as the sequence (P09874 whole entry, looked up) above

binding result [1]: no binding
B1: human Iduna (RNF146) (enzyme)
chain: MAGCGEIDHSINMLPTNKKANESCSNTAPSLTVPECAICLQTCVHPVSLPCKHVFCYLCVKGASWLGKRCALCRQEIPEDFLDKPTLLSPEELKAASRENGEYAWYYEGRNGWWQYDERTSRELEDAFSKGKKNTEMLIAGFLYVADLENMVQYRRNEHGRRRKVKRDIIDIPKKGVAGLRLDCDANTVNLARESSADGADSVSAQSGASVQPLVSSVRPLTSVDGQLTSPATPSPDASTSLEDSFAHLQLSGDNTAERSHRGEGEEDHESPSSGRVPAPDTSIEETESDASSDSEDVSAVVAQHSLTQQRLLVSNANQTVPDRSDRSGTDRSVAGGGTVSVSVRSRRPDGQCTVIEV
notes: also called hIduna; endogenous Iduna (MCF7 cells)

B2: GST-Iduna (protein)
chain: MEMAGCGEIDHSINMLPTNKKANESCSNTAPSLTVPECAICLQTCVHPVSLPCKHVFCYLCVKGASWLGKRCALCRQEIPEDFLDKPTLLSPEELKAASRGNGEYAWYYEGRNGWWQYDERTSRELEDAFSKGKKNTEMLIAGFLYVADLENMVQYRRNEHGRRRKIKRDIIDIPKKGVAGLRLDCDTNTVNLARESSADGADSGSAQTGASVQLAVPSSTRPLTSVDGQLTSPVTPSPDAGISLEDSFAHLQLSGDSIAERSHRGEGEEDHESPSSGRVPDTSVEETESDASSDSEDAPVVVAQHSLTQQRPLVPNGNQTVADQSDRSGTDRSVAGGGTMSVNVRSRRPDGQCTVIEV
in vitro ubiquitination assay (E1, UBCH 5c, ubiquitin), immunoblot with antibodies to ubiquitin [2]: Only PARsylated PARP1 is ubiquitinated by GST-Iduna
in vitro ubiquitination assay (E1, UBCH 5c, ubiquitin), immunoblot with antibodies to ubiquitin [3]: Only PARsylated PARP1 is ubiquitinated by GST-Iduna (non-PARsylated PARP1 is not ubiquitinated)

B3: GFP-Iduna (EGFP-tagged Iduna) (protein)
chain: MEMAGCGEIDHSINMLPTNKKANESCSNTAPSLTVPECAICLQTCVHPVSLPCKHVFCYLCVKGASWLGKRCALCRQEIPEDFLDKPTLLSPEELKAASRGNGEYAWYYEGRNGWWQYDERTSRELEDAFSKGKKNTEMLIAGFLYVADLENMVQYRRNEHGRRRKIKRDIIDIPKKGVAGLRLDCDTNTVNLARESSADGADSGSAQTGASVQLAVPSSTRPLTSVDGQLTSPVTPSPDAGISLEDSFAHLQLSGDSIAERSHRGEGEEDHESPSSGRVPDTSVEETESDASSDSEDAPVVVAQHSLTQQRPLVPNGNQTVADQSDRSGTDRSVAGGGTMSVNVRSRRPDGQCTVIEV
in vitro ubiquitination assay on anti-GFP immunoprecipitates, immunoblot with antibodies to PAR and ubiquitin [4]: only GFP-Iduna is capable of polyubiquitination of PARsylated PARP1
